Assay results from paper PMC4766306, “CYP96T1 of Narcissus sp. aff. pseudonarcissus Catalyzes Formation of the Para-Para' C-C Phenol Couple in the Amaryllidaceae Alkaloids” (Frontiers in Plant Science, 2016).

Columns and labels:
Type in all cases: cell-based, Narcissus aff. pseudonarcissus MK-2014
Settings in all cases: heme
[1] = substrate: COc1ccc(CNCCc2ccc(O)cc2)cc1O; assay: LC-MS/MS enzyme kinetics with Sf9-expressed CYP96T1; CPR-only negative control
[2] = substrate: COc1ccc(CN(C)CCc2ccc(O)cc2)cc1O; assay: as above
[3] = substrate: COc1cc2c(cc1O)[C@H](Cc1ccc(O)cc1)NCC2; assay: LC-MS/MS enzyme kinetics with Sf9-expressed CYP96T1
[4] = substrate: COc1cc2c(cc1O)[C@@H](Cc1ccc(O)cc1)NCC2; assay: as above

B1: CYP96T1 (Narcissus aff. pseudonarcissus MK-2014) (protein)
chain: MATSSSAWLMFSDHYPEILIAIACFLIFSLLLSARSSSEDSLPYNWPIFGMLPAIISNNQFNDFTTARLRKMGWTFIFKGPWLLDMDYIFTCDPSNINHMFNDNFENYPKGELGKVFDIFGNNIFNADGDLWHDHRKMAQTILWDGNYRTMQATFIRNKMDNALIPILDSAASKRKPVDLQDVFFRFTFDTSCFSVLAADPESLTMEFPAVPFSKAADQALDAALTRHITPRLIWKLKRFFNVGSERTLAVAWKVIDSYIYDKIAELKAKRKLVGKINSYDAVSFYMDNFNIHDDKFLRDNAFTYLLAQRNTQSLTMTWLFYALFENPKVELKILSELKSIVDESSERKFNDGFALFDSNMIQSAIYLHATLCEALRIYPPVPFEIKDAHKADVLPSGHKVRAGEKILFSPYAMARMKGIWGDDCLEFKPERWITGNGTLKHEPAYKFFAFSAGPRICLGKELSFTQMKMVVATIIYNFHLQMVKGHVVEQSNSILMDMKHGLMVQVRKRSVM
notes: CYP96T1 ORF (GenBank KT693311) expressed in Sf9 cells, co-expressed with Eschscholzia californica CPR
Km [1]: 1.13 ± 0.54 µM | kcat [1]: 0.25 ± 0.0338 s⁻¹ | kcat/Km [1]: 217000 M⁻¹ s⁻¹ | Km [2]: 3.28 ± 2.27 µM | kcat [2]: 0.0407 ± 0.009 s⁻¹ | kcat/Km [2]: 12400 M⁻¹ s⁻¹ | Km [3]: 637 ± 156 µM | kcat [3]: 0.0223 ± 0.0025 s⁻¹ | kcat/Km [3]: 35.2 M⁻¹ s⁻¹ | Km [4]: 659 ± 104 µM | kcat [4]: 0.0345 ± 0.00233 s⁻¹ | kcat/Km [4]: 52.5 M⁻¹ s⁻¹
